tested on: Escherichia coli TOP10; test: shrunken log2 fold change of peptide-encoding DNA abundance (4.5 h post-induction vs induction); higher = less antimicrobial activity (less host growth inhibition); details: time post-induction: 4.5 h; library: site-saturation at positions 5, 18, 19, 20
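Note: peptides expressed intracellularly from a pBAD plasmid library in pooled LB shake-flask culture, induced with 0.3% L-arabinose, DNA abundance read by NGS, three biological replicates, DESeq2 with apeglm shrinkage.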

Sequence	shrunken log2 fold change
RRIRFRPPRLPRPRPRPHHCPRP	-0.198
RRIRLRPPRLPRPRPRPEPYPRP	-0.305
RRIRPRPPRLPRPRPRPMMVPRP	-0.0739
RRIRFRPPRLPRPRPRPIFWPRP	0.192
RRIRVRPPRLPRPRPRPSFKPRP	-0.202
RRIRCRPPRLPRPRPRPWPPPRP	1.08
RRIRRRPPRLPRPRPRPPAPPRP	1.13
RRIRVRPPRLPRPRPRPMRGPRP	0.444
RRIRHRPPRLPRPRPRPECGPRP	0.322
RRIRVRPPRLPRPRPRPHHNPRP	0.192
RRIRHRPPRLPRPRPRPIYNPRP	-0.898
RRIRDRPPRLPRPRPRPSRGPRP	0.386
RRIRLRPPRLPRPRPRPDEGPRP	-0.018
RRIRLRPPRLPRPRPRPMEKPRP	0.0493
RRIRVRPPRLPRPRPRPCAWPRP	0.27
RRIRRRPPRLPRPRPRPINCPRP	-0.129
RRIRRRPPRLPRPRPRPYEQPRP	-0.214
RRIRCRPPRLPRPRPRPPFYPRP	-0.0226
RRIRPRPPRLPRPRPRPQHRPRP	0.162
RRIRSRPPRLPRPRPRPCHLPRP	-0.0433
RRIRLRPPRLPRPRPRPKPRPRP	0.729
RRIRQRPPRLPRPRPRPPCTPRP	-0.0301
RRIRARPPRLPRPRPRPPWSPRP	0.585
RRIRGRPPRLPRPRPRPWYSPRP	-0.471
RRIRERPPRLPRPRPRPFQEPRP	-0.0402

Sequence	shrunken log2 fold change
RRIRRRPPRLPRPRPRPQPSPRP	0.231
RRIRLRPPRLPRPRPRPDYWPRP	-0.596
RRIRLRPPRLPRPRPRPIFSPRP	-0.182
RRIRVRPPRLPRPRPRPKSFPRP	0.217
RRIRERPPRLPRPRPRPMCPPRP	-0.0308
RRIRYRPPRLPRPRPRPSTTPRP	-0.717
RRIRGRPPRLPRPRPRPAFCPRP	0.731
RRIRCRPPRLPRPRPRPQAHPRP	-0.132
RRIRHRPPRLPRPRPRPERWPRP	0.357
RRIRMRPPRLPRPRPRPIWQPRP	-0.224
RRIRQRPPRLPRPRPRPYFCPRP	-0.396
RRIRRRPPRLPRPRPRPEQAPRP	-0.0266
RRIRCRPPRLPRPRPRPRHVPRP	-0.0723
RRIRARPPRLPRPRPRPRAWPRP	0.699
RRIRRRPPRLPRPRPRPSRYPRP	1.35
RRIRGRPPRLPRPRPRPNHLPRP	-0.226
RRIRLRPPRLPRPRPRPEWQPRP	-0.0018
RRIRTRPPRLPRPRPRPTSWPRP	0.139
RRIRDRPPRLPRPRPRPKLEPRP	0.434
RRIRHRPPRLPRPRPRPLPVPRP	0.125
RRIRARPPRLPRPRPRPCKEPRP	0.000506
RRIRSRPPRLPRPRPRPELHPRP	0.249
RRIRIRPPRLPRPRPRPVHIPRP	-0.155
RRIRKRPPRLPRPRPRPKGEPRP	0.201
RRIRHRPPRLPRPRPRPTVGPRP	0.0689

Sequence	shrunken log2 fold change
RRIRQRPPRLPRPRPRPHHVPRP	-0.0277
RRIRPRPPRLPRPRPRPPIQPRP	0.00728
RRIRPRPPRLPRPRPRPFKCPRP	-0.214
RRIRDRPPRLPRPRPRPQQLPRP	-0.0103
RRIRFRPPRLPRPRPRPCVGPRP	-0.433
RRIRKRPPRLPRPRPRPPGKPRP	0.756
RRIRCRPPRLPRPRPRPAGYPRP	-0.342
RRIRVRPPRLPRPRPRPNFMPRP	0.0796
RRIRYRPPRLPRPRPRPTQEPRP	0.0039
RRIRHRPPRLPRPRPRPKHGPRP	0.109
RRIRGRPPRLPRPRPRPWFGPRP	-0.05
RRIRDRPPRLPRPRPRPWRTPRP	-0.0162
RRIRMRPPRLPRPRPRPDKPPRP	-0.00474
RRIRARPPRLPRPRPRPSMSPRP	-0.105
RRIRPRPPRLPRPRPRPRNCPRP	0.0981
RRIRFRPPRLPRPRPRPRRDPRP	0.798
RRIRSRPPRLPRPRPRPPTTPRP	0.391
RRIRPRPPRLPRPRPRPCSFPRP	-0.109
RRIRPRPPRLPRPRPRPRVAPRP	0.743
RRIRTRPPRLPRPRPRPACHPRP	0.049
RRIRNRPPRLPRPRPRPECGPRP	0.445
RRIRTRPPRLPRPRPRPRPCPRP	-0.0153
RRIRHRPPRLPRPRPRPWMFPRP	-0.119
RRIRPRPPRLPRPRPRPYVQPRP	-0.147
RRIRKRPPRLPRPRPRPYDMPRP	-0.0843

Sequence	shrunken log2 fold change
RRIRTRPPRLPRPRPRPPAFPRP	-0.216
RRIRERPPRLPRPRPRPAWLPRP	0.471
RRIRVRPPRLPRPRPRPQFCPRP	-0.17
RRIRARPPRLPRPRPRPKWTPRP	-0.00127
RRIRMRPPRLPRPRPRPKPEPRP	0.0854
RRIRTRPPRLPRPRPRPCSHPRP	0.13
RRIRLRPPRLPRPRPRPYEDPRP	-0.125
RRIRTRPPRLPRPRPRPVYHPRP	-1.34
RRIRQRPPRLPRPRPRPNYRPRP	0.0444
RRIRPRPPRLPRPRPRPDIYPRP	-0.0306
RRIRIRPPRLPRPRPRPAENPRP	-0.0424
RRIRARPPRLPRPRPRPCHEPRP	-0.055
RRIRPRPPRLPRPRPRPMLCPRP	0.122
RRIRNRPPRLPRPRPRPYAWPRP	-0.141
RRIRARPPRLPRPRPRPFRWPRP	-0.0369
RRIRNRPPRLPRPRPRPSLFPRP	-0.453
RRIRSRPPRLPRPRPRPYSHPRP	-0.712
RRIRNRPPRLPRPRPRPGVFPRP	0.117
RRIRKRPPRLPRPRPRPVWSPRP	-0.0616
RRIRWRPPRLPRPRPRPCILPRP	-0.39
RRIRSRPPRLPRPRPRPWNDPRP	-0.303
RRIRDRPPRLPRPRPRPPMNPRP	-0.258
RRIRARPPRLPRPRPRPIAWPRP	0.442
RRIRGRPPRLPRPRPRPRYNPRP	-0.0667
RRIRSRPPRLPRPRPRPSQQPRP	0.0577

Sequence	shrunken log2 fold change
RRIRMRPPRLPRPRPRPYYTPRP	0.0968
RRIRPRPPRLPRPRPRPTSWPRP	0.769
RRIRQRPPRLPRPRPRPPLLPRP	-0.114
RRIRQRPPRLPRPRPRPKDLPRP	-0.0616
RRIRHRPPRLPRPRPRPYKKPRP	-0.0963
RRIRSRPPRLPRPRPRPEKMPRP	0.061
RRIRARPPRLPRPRPRPQYEPRP	0.181
RRIRNRPPRLPRPRPRPMMCPRP	-0.0344
RRIRQRPPRLPRPRPRPAEYPRP	0.0734
RRIRTRPPRLPRPRPRPWDVPRP	-0.092
RRIRQRPPRLPRPRPRPRKYPRP	-0.2
RRIRCRPPRLPRPRPRPESHPRP	0.0129
RRIRLRPPRLPRPRPRPEVQPRP	0.0654
RRIRVRPPRLPRPRPRPGSIPRP	0.00983
RRIRDRPPRLPRPRPRPKETPRP	-0.0231
RRIRSRPPRLPRPRPRPHSQPRP	0.0681
RRIRRRPPRLPRPRPRPWNEPRP	-0.208
RRIRTRPPRLPRPRPRPDEKPRP	0.0325
RRIRVRPPRLPRPRPRPCIQPRP	-0.00992
RRIRTRPPRLPRPRPRPTSSPRP	0.113
RRIRWRPPRLPRPRPRPHIYPRP	-0.358
RRIRFRPPRLPRPRPRPCDDPRP	-0.00233
RRIRFRPPRLPRPRPRPRTNPRP	-0.179
RRIRARPPRLPRPRPRPSTIPRP	-0.273
RRIRRRPPRLPRPRPRPRCHPRP	0.127

Sequence	shrunken log2 fold change
RRIRVRPPRLPRPRPRPHWAPRP	0.142
RRIRLRPPRLPRPRPRPIKVPRP	-0.135
RRIRTRPPRLPRPRPRPLAIPRP	0.00788
RRIRDRPPRLPRPRPRPLWEPRP	0.0751
RRIRNRPPRLPRPRPRPCFYPRP	-0.474
RRIRFRPPRLPRPRPRPRSFPRP	-0.138
RRIRWRPPRLPRPRPRPHYSPRP	-0.279
RRIRERPPRLPRPRPRPMYGPRP	-0.739
RRIRHRPPRLPRPRPRPIWHPRP	-0.327
RRIRFRPPRLPRPRPRPYPLPRP	-0.604
RRIRHRPPRLPRPRPRPDLEPRP	-0.00264
RRIRKRPPRLPRPRPRPKNTPRP	-0.0285
RRIRCRPPRLPRPRPRPMTHPRP	-0.377
RRIRMRPPRLPRPRPRPKSEPRP	0.0246
RRIRHRPPRLPRPRPRPPMAPRP	0.197
RRIRMRPPRLPRPRPRPKPRPRP	1.63
RRIRIRPPRLPRPRPRPTKSPRP	-0.141
RRIRWRPPRLPRPRPRPWPPPRP	0.546
RRIRLRPPRLPRPRPRPLWFPRP	-0.543
RRIRRRPPRLPRPRPRPDTQPRP	0.162
RRIRCRPPRLPRPRPRPCWHPRP	-0.169
RRIRLRPPRLPRPRPRPPFCPRP	0.701
RRIRKRPPRLPRPRPRPHCHPRP	0.0986
RRIRVRPPRLPRPRPRPRTCPRP	-0.143
RRIRPRPPRLPRPRPRPLEMPRP	0.0597

From the supplement of paper PMC9112550, “Optimization of the antimicrobial peptide Bac7 by deep mutational scanning” (BMC Biology, 2022)
